Reference: patent US20050037448A1

Experiments:
human proinsulin (human) [1] = biological target: human proinsulin (human) (UniProt P01308); assay: competitive RIA, PEP001-coated tubes, 125I-Tyr-C-peptide; serum E2 overloaded with 0.16 pmol/ml proinsulin; no AC1D4
human proinsulin (human) [2] = biological target: human proinsulin (human) (UniProt P01308); assay: competitive RIA, PEP001-coated tubes, 125I-Tyr-C-peptide; serum E2 overloaded with 0.67 pmol/ml proinsulin; no AC1D4
human proinsulin (human) [3] = biological target: human proinsulin (human) (UniProt P01308); assay: competitive RIA, PEP001-coated tubes, 125I-Tyr-C-peptide; serum E2 overloaded with 3.33 pmol/ml proinsulin; no AC1D4
des-31,32-proinsulin [4] = biological target: des-31,32-proinsulin (UniProt P01308); assay: sandwich immunoenzymatic C-peptide assay: PEP001 beads, goat polyclonal anti-C-peptide-alkaline phosphatase; no BC9B6
des-64,65-proinsulin [5] = biological target: des-64,65-proinsulin (UniProt P01308); assay: as above
human proinsulin (human) [6] = biological target: human proinsulin (human) (UniProt P01308); assay: as above
des-31,32-proinsulin [7] = biological target: des-31,32-proinsulin (UniProt P01308); assay: competitive RIA, PEP001-coated tubes, 125I-Tyr-C-peptide; serum E1 overloaded with 3.33 pmol/ml des-31,32-proinsulin; no AC1D4
des-31,32-proinsulin [8] = biological target: des-31,32-proinsulin (UniProt P01308); assay: competitive RIA, PEP001-coated tubes, 125I-Tyr-C-peptide; serum E2 overloaded with 0.67 pmol/ml des-31,32-proinsulin; no AC1D4
des-64,65-proinsulin [9] = biological target: des-64,65-proinsulin (UniProt P01308); assay: competitive RIA, PEP001-coated tubes, 125I-Tyr-C-peptide; serum E1 overloaded with 0.67 pmol/ml des-64,65-proinsulin; no AC1D4
des-64,65-proinsulin [10] = biological target: des-64,65-proinsulin (UniProt P01308); assay: competitive RIA, PEP001-coated tubes, 125I-Tyr-C-peptide; serum E1 overloaded with 3.33 pmol/ml des-64,65-proinsulin; no AC1D4
human proinsulin (human) [11] = biological target: human proinsulin (human) (UniProt P01308); assay: competitive RIA, PEP001-coated tubes, 125I-Tyr-C-peptide; serum E1 overloaded with 0.16 pmol/ml proinsulin; competitor AC1D4 20 µg/ml
human proinsulin (human) [12] = biological target: human proinsulin (human) (UniProt P01308); assay: competitive RIA, PEP001-coated tubes, 125I-Tyr-C-peptide; serum E1 overloaded with 0.67 pmol/ml proinsulin; competitor AC1D4 20 µg/ml
human proinsulin (human) [13] = biological target: human proinsulin (human) (UniProt P01308); assay: competitive RIA, PEP001-coated tubes, 125I-Tyr-C-peptide; serum E2 overloaded with 0.67 pmol/ml proinsulin; competitor AC1D4 20 µg/ml
human proinsulin (human) [14] = biological target: human proinsulin (human) (UniProt P01308); assay: competitive RIA, PEP001-coated tubes, 125I-Tyr-C-peptide; serum E2 overloaded with 3.33 pmol/ml proinsulin; competitor AC1D4 20 µg/ml
des-31,32-proinsulin [15] = biological target: des-31,32-proinsulin (UniProt P01308); assay: competitive RIA, PEP001-coated tubes, 125I-Tyr-C-peptide; serum E1 overloaded with 0.67 pmol/ml des-31,32-proinsulin; competitor AC1D4 20 µg/ml
des-31,32-proinsulin [16] = biological target: des-31,32-proinsulin (UniProt P01308); assay: competitive RIA, PEP001-coated tubes, 125I-Tyr-C-peptide; serum E2 overloaded with 0.16 pmol/ml des-31,32-proinsulin; competitor AC1D4 20 µg/ml
des-64,65-proinsulin [17] = biological target: des-64,65-proinsulin (UniProt P01308); assay: competitive RIA, PEP001-coated tubes, 125I-Tyr-C-peptide; serum E1 overloaded with 0.16 pmol/ml des-64,65-proinsulin; competitor AC1D4 20 µg/ml
des-64,65-proinsulin [18] = biological target: des-64,65-proinsulin (UniProt P01308); assay: competitive RIA, PEP001-coated tubes, 125I-Tyr-C-peptide; serum E1 overloaded with 3.33 pmol/ml des-64,65-proinsulin; competitor AC1D4 20 µg/ml
des-64,65-proinsulin [19] = biological target: des-64,65-proinsulin (UniProt P01308); assay: competitive RIA, PEP001-coated tubes, 125I-Tyr-C-peptide; serum E2 overloaded with 0.16 pmol/ml des-64,65-proinsulin; competitor AC1D4 20 µg/ml
des-31,32-proinsulin [20] = biological target: des-31,32-proinsulin (UniProt P01308); assay: sandwich immunoenzymatic C-peptide assay: PEP001 beads, goat polyclonal conjugate; competitors AC1D4 + BC9B6 in equal quantities, column head 2 µg/ml
des-64,65-proinsulin [21] = biological target: des-64,65-proinsulin (UniProt P01308); assay: as above
human proinsulin (human) [22] = biological target: human proinsulin (human) (UniProt P01308); assay: as above
des-31,32-proinsulin [23] = biological target: des-31,32-proinsulin (UniProt P01308); assay: sandwich immunoenzymatic C-peptide assay: PEP001 beads, goat polyclonal conjugate; competitors AC1D4 + BC9B6 in equal quantities, 20 µg/ml
des-64,65-proinsulin [24] = biological target: des-64,65-proinsulin (UniProt P01308); assay: as above
human proinsulin (human) [25] = biological target: human proinsulin (human) (UniProt P01308); assay: as above
des-31,32-proinsulin [26] = biological target: des-31,32-proinsulin (UniProt P01308); assay: sandwich immunoenzymatic C-peptide assay: PEP001 beads, goat polyclonal conjugate; competitors AC1D4 + BC9B6 in equal quantities, 40 µg/ml
des-64,65-proinsulin [27] = biological target: des-64,65-proinsulin (UniProt P01308); assay: as above
human proinsulin (human) [28] = biological target: human proinsulin (human) (UniProt P01308); assay: as above

Increase after overload (%) (human proinsulin (human) [1]): 1%
Increase after overload (%) (human proinsulin (human) [2]): 12%
Increase after overload (%) (human proinsulin (human) [3]): 54%
percentage of cross reaction (des-31,32-proinsulin [4]): 108%
percentage of cross reaction (des-64,65-proinsulin [5]): 94%
percentage of cross reaction (human proinsulin (human) [6]): 92%
Increase after overload (%) (des-31,32-proinsulin [7]): 213%
Increase after overload (%) (des-31,32-proinsulin [8]): 8%
Increase after overload (%) (des-64,65-proinsulin [9]): 49%
Increase after overload (%) (des-64,65-proinsulin [10]): 267%
Increase after overload (%) (human proinsulin (human) [11]): 0%
Increase after overload (%) (human proinsulin (human) [12]): 6%
Increase after overload (%) (human proinsulin (human) [13]): 1%
Increase after overload (%) (human proinsulin (human) [14]): 0%
Increase after overload (%) (des-31,32-proinsulin [15]): 12%
Increase after overload (%) (des-31,32-proinsulin [16]): 0%
Increase after overload (%) (des-64,65-proinsulin [17]): 10%
Increase after overload (%) (des-64,65-proinsulin [18]): 242%
Increase after overload (%) (des-64,65-proinsulin [19]): 0%
percentage of cross reaction (des-31,32-proinsulin [20]): 65%
percentage of cross reaction (des-64,65-proinsulin [21]): 48%
percentage of cross reaction (human proinsulin (human) [22]): 23%
percentage of cross reaction (des-31,32-proinsulin [23]): 19%
percentage of cross reaction (des-64,65-proinsulin [24]): 10%
percentage of cross reaction (human proinsulin (human) [25]): 2%
percentage of cross reaction (des-31,32-proinsulin [26]): 13%
percentage of cross reaction (des-64,65-proinsulin [27]): 7%
percentage of cross reaction (human proinsulin (human) [28]): 18%
Substance: PEP001 anti-C-peptide monoclonal antibody
